# Reference: patent US20230340152A1 (published 2023)
# Changes are numbered by the printed parent chain. In names and notes the source's numbering stands.
# T1: Human CD73 N185G, His-tagged (human, UniProt P21589 27-549)
# T1 sequence: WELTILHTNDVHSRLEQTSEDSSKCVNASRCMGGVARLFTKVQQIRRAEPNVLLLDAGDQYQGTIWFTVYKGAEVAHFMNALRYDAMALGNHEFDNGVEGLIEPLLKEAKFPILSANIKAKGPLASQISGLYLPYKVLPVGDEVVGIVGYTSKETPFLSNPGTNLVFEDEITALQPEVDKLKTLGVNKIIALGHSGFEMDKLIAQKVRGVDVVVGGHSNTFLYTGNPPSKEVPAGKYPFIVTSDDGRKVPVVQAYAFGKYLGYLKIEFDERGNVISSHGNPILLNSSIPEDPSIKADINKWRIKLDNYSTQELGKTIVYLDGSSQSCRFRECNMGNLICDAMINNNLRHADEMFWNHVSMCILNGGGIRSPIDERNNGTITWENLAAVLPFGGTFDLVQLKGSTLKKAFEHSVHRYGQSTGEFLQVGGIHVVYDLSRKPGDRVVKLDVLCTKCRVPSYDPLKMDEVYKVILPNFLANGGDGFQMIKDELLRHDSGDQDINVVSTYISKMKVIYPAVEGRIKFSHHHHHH
# T2: Cynomolgus CD73 ECD (cynomolgus, UniProt A0A2K5V5U7 27-549)
# T2 construct: extracellular domain; also called cyno CD73
# T2 sequence: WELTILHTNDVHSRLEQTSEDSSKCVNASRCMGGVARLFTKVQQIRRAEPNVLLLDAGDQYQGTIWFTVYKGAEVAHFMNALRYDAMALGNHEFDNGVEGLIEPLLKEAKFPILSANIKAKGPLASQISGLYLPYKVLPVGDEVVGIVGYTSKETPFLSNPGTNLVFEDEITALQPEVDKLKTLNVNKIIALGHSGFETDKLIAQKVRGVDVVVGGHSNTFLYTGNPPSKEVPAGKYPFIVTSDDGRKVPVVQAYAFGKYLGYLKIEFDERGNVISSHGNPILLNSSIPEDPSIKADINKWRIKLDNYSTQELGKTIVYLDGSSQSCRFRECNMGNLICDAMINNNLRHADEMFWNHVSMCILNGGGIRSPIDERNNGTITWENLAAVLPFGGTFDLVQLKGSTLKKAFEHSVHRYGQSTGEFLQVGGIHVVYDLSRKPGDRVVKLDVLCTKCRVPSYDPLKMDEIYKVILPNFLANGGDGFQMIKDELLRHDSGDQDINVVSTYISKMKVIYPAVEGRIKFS
# T3: Human CD73 ECD (human, UniProt P21589 27-549)
# T3 construct: Biotinylated in some assays; also called human CD73 extracellular domain; huCD73
# T3 sequence: T2 sequence with T199M, A350T, I466V
# B1: MEDI9447 (antibody, human IgG1, lambda, V domains shown)
# VH: EVQLLESGGGLVQPGGSLRLSCAASGFTFSSYAYSWVRQAPGKGLEWVSAISGSGGRTYYADSVKGRFTISRDNSKNTLYLQMNSLRAEDTAVYYCARLGYGRVDEWGRGTLVTVSS
# VL: QSVLTQPPSASGTPGQRVTISCSGSLSNIGRNPVNWYQQLPGTAPKLLIYLDNLRLSGVPDRFSGSKSGTSASLAISGLQSEDEADYYCATWDDSHPGWTFGGGTKLTVLG
# notes: Human IgG1-TM (L234F, L235E, P331S), lambda light chain; also called clone 10.3 antibody; 73combo3
# Experiments:
# [1] = molecular target: T1, Human CD73 N185G, His-tagged; assay: SPR (ProteOn), CD73 variant immobilized; 2:1 fit
# Procedure: Binding of MEDI9447 to wild-type and mutant CD73 proteins was measured by surface plasmon resonance (SPR) using a ProteOn instrument (BioRad). CD73 crude cell supernatant protein samples were diluted to 3 µg/ml in PBS, 0.005% Tween-20, pH 7.4 (BioRad) and immobilized to ~400 RU on a HTG tris-NTA sensor chip (BioRad) pre-activated with 10 mM NiSO₄, 10 mM MES, pH 6.0 (BioRad). An equivalently diluted crude cell supernatant sample from non-transfected cells was included as a reference channel control. Sensorgrams were recorded by flowing two-fold dilutions of MEDI9447 prepared in PBS, 0.005% Tween-20, pH 7.4, ranging from 5 nM to 0.31 nM. […] Antibody binding was measured at a flow rate of 100 µL/min with a 3 min association phase and 20 min dissociation phase. The sensor chip surface was regenerated between each run by an 800 s injection of 300 mM EDTA, pH 8.5 (BioRad) at a flow rate of 30 µL/min. Binding kinetics were analyzed using the ProteOn data analysis software. Double referencing was performed and, unless noted otherwise, a 1:1 Langmuir binding model was utilized to fit the data. Some CD73 variants containing mutations within the amino acid region 171-188 fit poorly to a 1:1 model (i.e., Chi² values >10% of Rmax). Where noted, these variants were fit with a heterogenous antigen (2:1) model. […] Due to the assay format (antigen immobilized) and the dimeric state of CD73, KD values may be exaggerated due to avidity effects. However, it is not anticipated that this impacts ranking of MEDI9447 binding to the different CD73 variants.
# Cynomolgus CD73 ECD = molecular target: T2, Cynomolgus CD73 ECD; assay: SPR (ProteOn), antibody captured by anti-human Fc, CD73 ECD in mobile phase
# Text: (§1) A ProteOn XPR36 instrument was used to characterize binding of MEDI9447 to human, murine, and cynomolgus CD73 ECD. MEDI9447 was affinity-captured using an anti-human Fc antibody. CD73 ECD was in the mobile phase. The association and dissociation of CD73 to MEDI9447 could be accurately described with the Langmuir 1: 1 model.
# Human CD73 ECD = molecular target: T3, Human CD73 ECD; assay: as above
# Text: as §1
binder,measurement,setting,value
B1,koff,[1],0.000245 s⁻¹
same,kon,[1],9.11e+06 M⁻¹ s⁻¹
same,Kd,Cynomolgus CD73 ECD,6.5 pM
same,koff,Cynomolgus CD73 ECD,1.76e-05 s⁻¹
same,kon,Cynomolgus CD73 ECD,2.71e+06 M⁻¹ s⁻¹
same,koff,Human CD73 ECD,1.06e-05 s⁻¹
same,kon,Human CD73 ECD,2.57e+06 M⁻¹ s⁻¹
